Assay results: PMC3915903 (Cell Research, 2013)

B1: Human PTPA, wild-type (natural protein)
chain: MAEGERQPPPDSSEEAPPATQNFIIPKKEIHTVPDMGKWKRSQAYADYIGFILTLNEGVKGKKLTFEYRVSEAIEKLVALLNTLDRWIDETPPVDQPSRFGNKAYRTWYAKLDEEAENLVATVVPTHLAAAVPEVAVYLKESVGNSTRIDYGTGHEAAFAAFLCCLCKIGVLRVDDQIAIVFKVFNRYLEVMRKLQKTYRMEPAGSQGVWGLDDFQFLPFIWGSSQLIDHPYLEPRHFVDEKAVNENHKDYMFLECILFITEMKTGPFAEHSNQLWNISAVPSWSKVNQGLIRMYKAECLEKFPVIQHFKFGSLLPIHPVTSG
B2: PTPA V281A (natural protein)
chain: MAEGERQPPPDSSEEAPPATQNFIIPKKEIHTVPDMGKWKRSQAYADYIGFILTLNEGVKGKKLTFEYRVSEAIEKLVALLNTLDRWIDETPPVDQPSRFGNKAYRTWYAKLDEEAENLVATVVPTHLAAAVPEVAVYLKESVGNSTRIDYGTGHEAAFAAFLCCLCKIGVLRVDDQIAIVFKVFNRYLEVMRKLQKTYRMEPAGSQGVWGLDDFQFLPFIWGSSQLIDHPYLEPRHFVDEKAVNENHKDYMFLECILFITEMKTGPFAEHSNQLWNISAAPSWSKVNQGLIRMYKAECLEKFPVIQHFKFGSLLPIHPVTSG
B3: PTPA M294K (natural protein)
chain: MAEGERQPPPDSSEEAPPATQNFIIPKKEIHTVPDMGKWKRSQAYADYIGFILTLNEGVKGKKLTFEYRVSEAIEKLVALLNTLDRWIDETPPVDQPSRFGNKAYRTWYAKLDEEAENLVATVVPTHLAAAVPEVAVYLKESVGNSTRIDYGTGHEAAFAAFLCCLCKIGVLRVDDQIAIVFKVFNRYLEVMRKLQKTYRMEPAGSQGVWGLDDFQFLPFIWGSSQLIDHPYLEPRHFVDEKAVNENHKDYMFLECILFITEMKTGPFAEHSNQLWNISAVPSWSKVNQGLIRKYKAECLEKFPVIQHFKFGSLLPIHPVTSG
B4: PTPA V209D (natural protein)
chain: MAEGERQPPPDSSEEAPPATQNFIIPKKEIHTVPDMGKWKRSQAYADYIGFILTLNEGVKGKKLTFEYRVSEAIEKLVALLNTLDRWIDETPPVDQPSRFGNKAYRTWYAKLDEEAENLVATVVPTHLAAAVPEVAVYLKESVGNSTRIDYGTGHEAAFAAFLCCLCKIGVLRVDDQIAIVFKVFNRYLEVMRKLQKTYRMEPAGSQGDWGLDDFQFLPFIWGSSQLIDHPYLEPRHFVDEKAVNENHKDYMFLECILFITEMKTGPFAEHSNQLWNISAVPSWSKVNQGLIRMYKAECLEKFPVIQHFKFGSLLPIHPVTSG
B5: PTPA R293E (natural protein)
chain: MAEGERQPPPDSSEEAPPATQNFIIPKKEIHTVPDMGKWKRSQAYADYIGFILTLNEGVKGKKLTFEYRVSEAIEKLVALLNTLDRWIDETPPVDQPSRFGNKAYRTWYAKLDEEAENLVATVVPTHLAAAVPEVAVYLKESVGNSTRIDYGTGHEAAFAAFLCCLCKIGVLRVDDQIAIVFKVFNRYLEVMRKLQKTYRMEPAGSQGVWGLDDFQFLPFIWGSSQLIDHPYLEPRHFVDEKAVNENHKDYMFLECILFITEMKTGPFAEHSNQLWNISAVPSWSKVNQGLIEMYKAECLEKFPVIQHFKFGSLLPIHPVTSG
B6: PTPA F100D (natural protein)
chain: MAEGERQPPPDSSEEAPPATQNFIIPKKEIHTVPDMGKWKRSQAYADYIGFILTLNEGVKGKKLTFEYRVSEAIEKLVALLNTLDRWIDETPPVDQPSRDGNKAYRTWYAKLDEEAENLVATVVPTHLAAAVPEVAVYLKESVGNSTRIDYGTGHEAAFAAFLCCLCKIGVLRVDDQIAIVFKVFNRYLEVMRKLQKTYRMEPAGSQGVWGLDDFQFLPFIWGSSQLIDHPYLEPRHFVDEKAVNENHKDYMFLECILFITEMKTGPFAEHSNQLWNISAVPSWSKVNQGLIRMYKAECLEKFPVIQHFKFGSLLPIHPVTSG

What follows are binders tested against GST-tagged PP2A core enzyme (AC heterodimer) (human, UniProt P30153;P67775) (assay: pull-down).
Sequence of GST-tagged PP2A core enzyme (AC heterodimer) (P30153 whole entry, chain 1 of 2): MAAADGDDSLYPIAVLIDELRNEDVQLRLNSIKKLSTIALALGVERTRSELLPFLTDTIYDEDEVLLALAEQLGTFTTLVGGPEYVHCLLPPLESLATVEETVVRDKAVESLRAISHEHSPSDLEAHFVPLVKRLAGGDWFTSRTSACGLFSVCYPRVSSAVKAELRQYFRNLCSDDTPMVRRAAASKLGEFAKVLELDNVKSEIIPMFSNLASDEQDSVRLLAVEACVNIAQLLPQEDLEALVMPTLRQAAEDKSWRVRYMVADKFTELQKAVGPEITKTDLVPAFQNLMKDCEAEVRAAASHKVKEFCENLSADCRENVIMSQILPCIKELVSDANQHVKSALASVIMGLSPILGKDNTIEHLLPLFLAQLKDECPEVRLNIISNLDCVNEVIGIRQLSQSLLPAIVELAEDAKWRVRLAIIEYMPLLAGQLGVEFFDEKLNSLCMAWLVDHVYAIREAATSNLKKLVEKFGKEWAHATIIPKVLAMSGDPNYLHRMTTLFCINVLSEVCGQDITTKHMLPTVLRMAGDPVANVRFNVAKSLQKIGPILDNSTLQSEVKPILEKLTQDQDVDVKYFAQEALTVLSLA
Sequence of GST-tagged PP2A core enzyme (AC heterodimer) (P67775 whole entry, chain 2 of 2): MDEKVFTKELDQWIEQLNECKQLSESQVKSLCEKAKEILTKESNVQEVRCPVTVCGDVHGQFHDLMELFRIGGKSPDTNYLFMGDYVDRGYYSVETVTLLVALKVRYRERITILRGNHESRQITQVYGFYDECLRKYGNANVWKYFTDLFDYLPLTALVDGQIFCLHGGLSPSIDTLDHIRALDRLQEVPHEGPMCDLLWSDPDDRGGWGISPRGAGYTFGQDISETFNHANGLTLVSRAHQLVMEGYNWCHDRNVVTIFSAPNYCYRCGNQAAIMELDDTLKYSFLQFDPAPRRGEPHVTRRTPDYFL

Binding result, binds:
B1
B2
B3
B4
B5
B6
